Ends that are not written are not given here. Ama = amidomalonate chelating group bound to Pt
Experiments:
[1] = Relative toxicity of Compound 1 made by two different processes, body weight in mice; assay type: in vivo, Female C57BL/6 mice; settings: murine study; new process versus process of U.S. Pat. No. 7,166,733
Experimental: Biological evaluation can be carried out with the methods as described below.
Female C57BL/6 mice were randomized into 7 groups of 5 mice each. Each mouse was identified by ear notch and followed individually throughout the study. Animals were observed and weighed prior to dosing for establishment of dosing volumes. All mice were dosed by a single IP injection with either a) Compound 1 made by the processes described herein, b) Compound 1 made by the process described in U.S. Pat. No. 7,166,733, or c) vehicle control. Three doses of each compound were tested: 75 mg Pt/kg, 100 mg Pt/kg and 150 mg Pt/kg. Test compounds were dissolved in isotonic glucose and administered in a volume of 0.4 mL per 20 g body weight. Gross observations and body weights were recorded daily for 14 days. Percent body weight change for each animal on each day was calculated as the percent change from their body weight recorded on day 1 just prior to injection of compounds.

[2] = Release of small molecule Pt species from polymer-linker-Pt complexes at 37° C. in PBS; assay type: physicochemical; settings: for Percent small platinum released from 1R,2R-DACH Pt(II) complex at 37° C. in PBS, 3 hours / Percent small platinum released from 1R,2R-DACH Pt(II) complex at 37° C. in PBS, 24 hours: 1R,2R-DACH stable chelate; for Percent small platinum released from cis-diammine Pt(II) complex at 37° C. in PBS, 3 hours / Percent small platinum released from cis-diammine Pt(II) complex at 37° C. in PBS, 24 hours: cis-diammine stable ligands
Excerpt: The compound tested comprised a poly(N-(2-hydroxypropyl)methacrylamide (10%)-co-methacrylamide (90%)) backbone polymer and either cis-diammine or 1R,2R-diaminocyclohexane (DACH) as the stable ligands/chelate of the Pt complex. The leaving-ligand comprised an N,O bidentate ligand with amidoaspartate (Asp) or amidomalonate (Ama).

[3] = 27° C.; cited from earlier work

Compound | safety profile [1] | Percent small platinum released from 1R,2R-DACH Pt(II) complex at 37° C. in PBS, 3 hours [2] [%] | Percent small platinum released from 1R,2R-DACH Pt(II) complex at 37° C. in PBS, 24 hours [2] [%] | Percent small platinum released from cis-diammine Pt(II) complex at 37° C. in PBS, 3 hours [2] [%] | Percent small platinum released from cis-diammine Pt(II) complex at 37° C. in PBS, 24 hours [2] [%] | pKa1 [3] | pKa2 [3]
poly(HPMA)-GGG-Ama=PtDACH [Compound 1] | safety profile identical to that of Compound 1 made by the processes described previously | – | – | – | – | – | –
Gly-Phe-Leu-Gly-Ama=Pt= (GFLG-Ama; also: Pt complex via Ama (=Pt=)) | – | 0.7 | 2.4 | 0.7 | 2.1 | – | –
Gly-Phe-Leu-Gly-Asp=Pt= (GFLGD; also: Pt conjugation (Asp=Pt=)) | – | 2.0 | 6.5 | 1.5 | 4.7 | – | –
NC1CCCCC1N.O.O.O=[N+]([O-])[O-].O=[N+]([O-])[O-].[Pt+2] (stereo not drawn) [diaqua platinum species, 1R,2R-DACH-diaquaplatinum (II) dinitrate] | – | – | – | – | – | 5.4 | 7.2

Source: patent publication US20110286958A1, “HPMA POLYMER PLATINUM CHELATES” (Access Pharmaceuticals, Inc., priority 2010, published 2011)
